Patent US20200354468A1 (US Dept. of Health and Human Services, published 2020)

T1: Recombinant CD133 domain A polypeptide (Homo sapiens, UniProt O43490 180-400, limits assumed)
T1 construct: also called CD133A; recombinant CD133 Extracellular Domain A
T1 sequence: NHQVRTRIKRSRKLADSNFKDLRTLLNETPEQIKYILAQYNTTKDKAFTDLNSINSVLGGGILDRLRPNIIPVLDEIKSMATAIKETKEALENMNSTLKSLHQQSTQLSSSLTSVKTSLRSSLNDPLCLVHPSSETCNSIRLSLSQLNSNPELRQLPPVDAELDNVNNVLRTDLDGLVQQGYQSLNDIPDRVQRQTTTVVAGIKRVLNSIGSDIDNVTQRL

T2: BSA-conjugated CD133 immunogenic polypeptide A (Homo sapiens, N-terminal lysine used for conjugation; conjugated to BSA)
T2 construct: The peptide stood in the assays as a BSA conjugate; also called A-BSA; PepA
T2 peptide: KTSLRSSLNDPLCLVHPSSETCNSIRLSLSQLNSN

T3: BSA-conjugated CD133 immunogenic polypeptide B (Homo sapiens, lysine added as C-terminal residue for conjugation; conjugated to BSA)
T3 construct: The peptide stood in the assays as a BSA conjugate; the text gives 615-643; also called B-BSA; Pep B
T3 peptide: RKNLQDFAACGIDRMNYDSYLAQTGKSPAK

T4: Recombinant CD133 domain B polypeptide (Homo sapiens, UniProt O43490 515-745)
T4 construct: also called CD133B; recombinant CD133 Extracellular Domain B
T4 sequence: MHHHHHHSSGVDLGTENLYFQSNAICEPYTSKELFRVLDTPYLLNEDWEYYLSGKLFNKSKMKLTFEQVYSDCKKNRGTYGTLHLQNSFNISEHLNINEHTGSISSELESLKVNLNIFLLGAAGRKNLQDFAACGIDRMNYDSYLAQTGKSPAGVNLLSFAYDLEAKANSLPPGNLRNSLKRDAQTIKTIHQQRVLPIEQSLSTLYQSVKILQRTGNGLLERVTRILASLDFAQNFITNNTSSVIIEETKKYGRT


Assays:
[1] = target: T1, Recombinant CD133 domain A polypeptide; assay: direct ELISA, recombinant domain coated
Description: (§1) The cDNAs of IgG heavy and light chains were amplified by polymerase chain reaction (PCR) and cloned into a mammalian expression vector. The recombinant monoclonal antibody was then transiently expressed using a HEK293 cell system. The expressed recombinant antibodies were then tested by ELISA against CD133 immunogenic polypeptides A and B and recombinant domain A and B polypeptides. […] The testing confirmed the specificity of the mAbs. The cDNA was sequenced.

[2] = target: T2, BSA-conjugated CD133 immunogenic …; assay: direct ELISA, BSA-conjugated peptide coated
[3] = target: T3, BSA-conjugated CD133 immunogenic …; assay: direct ELISA, BSA-conjugated peptide coated
[4] = target: T4, Recombinant CD133 domain B polypeptide; assay: subclone screening by ELISA and Western blot
[5] = target: T4, Recombinant CD133 domain B polypeptide; assay: direct ELISA, recombinant domain coated
Description: as §1

Binder | binding result [1] | binding result [2] | binding result [3] | binding result [4] | binding result [5]
anti-CD133 monoclonal antibody mAb 133-3 (antibody, V domains shown, Rabbit IgG from a hybridoma, cloned and made recombinantly in HEK293 cells) VH: QSVEESGGRLVTPGTPLTLTCTVSGFSLSRYAMSWVRQAPGKGLDWIGYIDIGGGAYYASWAKGRFTISETSTTVYLKVNSPTTEDTATYFCARGVANSDIWGPGTLVTVSS VL: ALVMTQTPSPVSAAVGGTVTINCQSSQSVFNNKWLSWYQQKPGQPPKLLIYFVSTLASGVPSRFKGSGSGTQFTLTISGVQCDDAATYYCQGSDYSSGWYSPFGGGTEVVVEG | no binding | no binding | binds | binds | –
anti-CD133 monoclonal antibody mAb 47-10 (antibody, V domains shown, Rabbit IgG from a hybridoma, cloned and made recombinantly in HEK293 cells; also called clone 47-10; mAb subclone 47-10) VH: QSVEESGGRLVTPGTPLTLTCTVSGIDLNNYNMQWVRQAPGKGLEWIGATFGSDSIYYATWAKGRFTISKTSTTVDLKMTSLTTEDTATYFCARGGLWGPGTLVTVSS VL: AQVLTQTASPVSAAVGATVTINCQSSQSVYNNNYLAWFQQKPGQPPKLLIYRASTLASGVSSRFKGSGSGTQFALTISGVQCDDAGTYYCQGEFSCDSADCAAFGGGTEVVVKG | – | – | no binding | – | no binding
